From article PMC9408373, “CDC42-IQGAP Interactions Scrutinized: New Insights into the Binding Properties of the GAP-Related Domain” (International Journal of Molecular Sciences, 2022)

T1: human IQGAP2 GRD2 (aa 875-1246) (human, UniProt Q13576 875-1246)
T1 construct: source: E. coli, purified (glutathione Sepharose), GST cleaved with thrombin; not shown: GST, N-terminal, cleaved
T1 sequence (looked up): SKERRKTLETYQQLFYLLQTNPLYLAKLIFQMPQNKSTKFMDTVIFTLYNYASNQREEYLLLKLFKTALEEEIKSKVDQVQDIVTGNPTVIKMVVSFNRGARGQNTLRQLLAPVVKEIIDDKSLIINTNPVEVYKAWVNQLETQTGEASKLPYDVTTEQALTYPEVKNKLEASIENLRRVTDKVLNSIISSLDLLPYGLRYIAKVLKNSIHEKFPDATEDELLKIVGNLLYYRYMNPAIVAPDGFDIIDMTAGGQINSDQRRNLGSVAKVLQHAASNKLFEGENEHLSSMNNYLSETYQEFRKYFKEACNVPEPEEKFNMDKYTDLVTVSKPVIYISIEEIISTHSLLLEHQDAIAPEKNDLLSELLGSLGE

B1: human CDC42 (aa 1-178) Q61L (natural protein)
chain: not shown
notes: also called CDC42^Q61L; CDC42(Q61L); source: E. coli, purified (glutathione Sepharose), GST cleaved with thrombin; not shown: GST, N-terminal, cleaved
B2: human IQGAP1 C794 (aa 863-1657) (domain or fragment, UniProt P46940 863-1657, looked up)
chain: DPPMVVVRKFVHLLDQSDQDFQEELDLMKMREEVITLIRSNQQLENDLNLMDIKIGLLVKNKITLQDVVSHSKKLTKKNKEQLSDMMMINKQKGGLKALSKEKREKLEAYQHLFYLLQTNPTYLAKLIFQMPQNKSTKFMDSVIFTLYNYASNQREEYLLLRLFKTALQEEIKSKVDQIQEIVTGNPTVIKMVVSFNRGARGQNALRQILAPVVKEIMDDKSLNIKTDPVDIYKSWVNQMESQTGEASKLPYDVTPEQALAHEEVKTRLDSSIRNMRAVTDKFLSAIVSSVDKIPYGMRFIAKVLKDSLHEKFPDAGEDELLKIIGNLLYYRYMNPAIVAPDAFDIIDLSAGGQLTTDQRRNLGSIAKMLQHAASNKMFLGDNAHLSIINEYLSQSYQKFRRFFQTACDVPELQDKFNVDEYSDLVTLTKPVIYISIGEIINTHTLLLDHQDAIAPEHNDPIHELLDDLGEVPTIESLIGESSGNLNDPNKEALAKTEVSLTLTNKFDVPGDENAEMDARTILLNTKRLIVDVIRFQPGETLTEILETPATSEQEAEHQRAMQRRAIRDAKTPDKMKKSKSVKEDSNLTLQEKKEKIQTGLKKLTELGTVDPKNKYQELINDIARDIRNQRRYRQRRKAELVKLQQTYAALNSKATFYGEQVDYYKSYIKTCLDNLASKGKVSKKPREMKGKKSKKISLKYTAARLHEKGVLLEIEDLQVNQFKNVIFEISPTEEVGDFEVKAKFMGVQMETFMLHYQDLLQLQYEGVAVMKLFDRAKVNVNLLIFLLNKKFYGK
notes: source: E. coli, purified (glutathione Sepharose), GST cleaved with thrombin; not shown: GST, N-terminal, cleaved
B3: human IQGAP1 GRD1 (aa 962-1345) (domain or fragment, UniProt P46940 962-1345, looked up)
chain: SKEKREKLEAYQHLFYLLQTNPTYLAKLIFQMPQNKSTKFMDSVIFTLYNYASNQREEYLLLRLFKTALQEEIKSKVDQIQEIVTGNPTVIKMVVSFNRGARGQNALRQILAPVVKEIMDDKSLNIKTDPVDIYKSWVNQMESQTGEASKLPYDVTPEQALAHEEVKTRLDSSIRNMRAVTDKFLSAIVSSVDKIPYGMRFIAKVLKDSLHEKFPDAGEDELLKIIGNLLYYRYMNPAIVAPDAFDIIDLSAGGQLTTDQRRNLGSIAKMLQHAASNKMFLGDNAHLSIINEYLSQSYQKFRRFFQTACDVPELQDKFNVDEYSDLVTLTKPVIYISIGEIINTHTLLLDHQDAIAPEHNDPIHELLDDLGEVPTIESLIGESS
notes: as for B2
B4: human IQGAP2 C795 (aa 780-1575) (domain or fragment, UniProt Q13576 780-1575, looked up)
chain: PLTVIRKFVYLLDQSDLDFQEELEVARLREEVVTKIRANQQLEKDLNLMDIKIGLLVKNRITLEDVISHSKKLNKKKGGEMEILNNTDNQGIKSLSKERRKTLETYQQLFYLLQTNPLYLAKLIFQMPQNKSTKFMDTVIFTLYNYASNQREEYLLLKLFKTALEEEIKSKVDQVQDIVTGNPTVIKMVVSFNRGARGQNTLRQLLAPVVKEIIDDKSLIINTNPVEVYKAWVNQLETQTGEASKLPYDVTTEQALTYPEVKNKLEASIENLRRVTDKVLNSIISSLDLLPYGLRYIAKVLKNSIHEKFPDATEDELLKIVGNLLYYRYMNPAIVAPDGFDIIDMTAGGQINSDQRRNLGSVAKVLQHAASNKLFEGENEHLSSMNNYLSETYQEFRKYFKEACNVPEPEEKFNMDKYTDLVTVSKPVIYISIEEIISTHSLLLEHQDAIAPEKNDLLSELLGSLGEVPTVESFLGEGAVDPNDPNKANTLSQLSKTEISLVLTSKYDIEDGEAIDSRSLMIKTKKLIIDVIRNQPGNTLTEILETPATAQQEVDHATDMVSRAMIDSRTPEEMKHSQSMIEDAQLPLEQKKRKIQRNLRTLEQTGHVSSENKYQDILNEIAKDIRNQRIYRKLRKAELAKLQQTLNALNKKAAFYEEQINYYDTYIKTCLDNLKRKNTRRSIKLDGKGEPKGAKRAKPVKYTAAKLHEKGVLLDIDDLQTNQFKNVTFDIIATEDVGIFDVRSKFLGVEMEKVQLNIQDLLQMQYEGVAVMKMFDKVKVNVNLLIYLLNKKFYGK
notes: as for B2
B5: human CDC42 (aa 1-178), wild type (natural protein)
chain: not shown
notes: Loaded with mant-GppNHp or mant-GDP (fluorescence assays) or GppNHp (SEC); also called CDC42 WT; CDC42^wt; source: E. coli, purified (glutathione Sepharose), GST cleaved with thrombin; not shown: GST, N-terminal, cleaved

Assays:
Settings in all cases: both partners purified
[1] = molecular target: T1, human IQGAP2 GRD2 (aa 875-1246); assay: fluorescence polarisation; 1 µM mant-GppNHp-bound CDC42 in the cuvette, IQGAP protein titrated; quadratic ligand binding equation
[2] = molecular target: B3; assay: as above
[3] = molecular target: B5; assay: fluorescence polarisation; 1 µM mant-GDP-bound CDC42 in the cuvette, IQGAP protein titrated; quadratic ligand binding equation
[4] = molecular target: B5; assay: SEC; GppNHp-bound CDC42 mixed with IQGAP1 GRD1; Superdex 200 10/300, 30 mM Tris/HCl pH 7.5, 150 mM NaCl, 5 mM MgCl2; stoichiometry from calibrated elution volumes
[5] = molecular target: B1; assay: as above
[6] = molecular target: B4; assay: fluorescence polarisation; 1 µM mant-GppNHp-bound CDC42 in the cuvette, IQGAP protein titrated; quadratic ligand binding equation
[7] = molecular target: B2; assay: as above

Binder	Kd [1]	Kd [2]	fold higher affinity for mGppNHp-bound than for mGDP-bound CDC42 [3]	other results
B1	2500 nM	2700 nM		
B2			~100 fold	
B3				stoichiometry N [4]: 1 GRD1 per CDC42 (2:2); stoichiometry N [5]: 2 ratio 2:1 as printed (which partner is the 2 is not told)
B4			~100 fold	
B5	69000 nM	186000 nM		Kd [6]: 900 nM; Kd [7]: 600 nM
